The target of the assay is T1, purified Get1-PC and Get2-HA reconstituted in proteoliposomes (yeast, UniProt P53192 1-235; P40056 1-285).
T1 construct: Get1 (Mdm39), yeast; construct details in the Supplemental Data; Get2 (Rmd7, Hur2), yeast; also called +Get1/+Get2; Get1/Get2 complex; source: copurified from yeast, reconstituted into proteoliposomes
T1 sequence (looked up) 1: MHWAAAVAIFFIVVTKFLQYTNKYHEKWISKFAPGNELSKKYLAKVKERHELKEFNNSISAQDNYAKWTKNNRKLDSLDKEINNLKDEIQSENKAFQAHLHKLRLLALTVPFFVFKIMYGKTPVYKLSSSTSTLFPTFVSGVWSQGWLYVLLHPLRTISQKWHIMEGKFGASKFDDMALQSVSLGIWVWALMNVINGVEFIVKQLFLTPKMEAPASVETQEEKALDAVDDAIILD
T1 sequence (looked up) 2: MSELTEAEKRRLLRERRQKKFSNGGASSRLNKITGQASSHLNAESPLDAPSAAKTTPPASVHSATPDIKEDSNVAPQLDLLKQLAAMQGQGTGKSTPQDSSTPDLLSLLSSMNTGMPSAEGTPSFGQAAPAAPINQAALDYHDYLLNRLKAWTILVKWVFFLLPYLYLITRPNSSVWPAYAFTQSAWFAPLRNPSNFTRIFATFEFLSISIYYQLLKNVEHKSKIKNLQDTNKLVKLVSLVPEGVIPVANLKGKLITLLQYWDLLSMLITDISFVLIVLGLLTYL
The assay is described as follows: co-sedimentation; recombinant Get3 incubated with proteoliposomes reconstituted with purified Get1-PC and Get2-HA or with Phs1 as control; Optiprep gradient fractions blotted with αGet3 or αPhs1. The conditions noted are these: both partners purified.

Here are results for one molecule from publication PMC2572727, “The GET Complex Mediates Insertion of Tail-Anchored Proteins into the ER Membrane” (Cell, 2008).

B1: recombinant Get3 ATPase (enzyme, yeast, UniProt Q12154 1-354, looked up)
chain: MDLTVEPNLHSLITSTTHKWIFVGGKGGVGKTTSSCSIAIQMALSQPNKQFLLISTDPAHNLSDAFGEKFGKDARKVTGMNNLSCMEIDPSAALKDMNDMAVSRANNNGSDGQGDDLGSLLQGGALADLTGSIPGIDEALSFMEVMKHIKRQEQGEGETFDTVIFDTAPTGHTLRFLQLPNTLSKLLEKFGEITNKLGPMLNSFMGAGNVDISGKLNELKANVETIRQQFTDPDLTTFVCVCISEFLSLYETERLIQELISYDMDVNSIIVNQLLFAENDQEHNCKRCQARWKMQKKYLDQIDELYEDFHVVKMPLCAGEIRGLNNLTKFSQFLNKEYNPITDGKVIYELEDKE
notes: Get3 (Arr4), yeast homolog of Asna1/TRC40, soluble cytosolic ATPase; also called Arr4; source: purified from Escherichia coli (Metz et al., 2006)
In the case of B1, the binding result is given as “binds”.
